# Test results taken from patent publication US20230149556A1, “COMBINATION THERAPY” (ADC Therapeutics SA, priority 2017, published 2023).
# System: Ramos cells
# Assay: In vitro cytotoxicity MTS assay, chequerboard of ADC and rituximab (Example 4)
# Assay type: cell-based
# Details: single agent
# Method: Ramos cells were cultured RPMI 1640 supplemented with 10% Hyclone FBS. The concentration and viability of cells from a sub-confluent (80-90% confluency) T75 flask were measured by trypan blue staining, and counted using the LUNA-II™ Automated Cell Counter. Cells were diluted to 2 x10^5/ml, dispensed (50 µl/well) into 96-well flat-bottom plates. A chequerboard was set up in combining 10-fold dilutions of ADCTx19 or ADCTx22 and 10-fold dilutions of rituximab in RPMI before 50 µl of each dilution was transferred into the 96-well plate containing the cells. This plate was incubated at 37° C. in a CO2-gassed incubator for 4 days. At the end of the incubation period, cell viability was measured by MTS assay. MTS (Promega) was dispensed (20 µl per well) into each well and incubated for 4 hours at 37C in the CO2-gassed incubator. Well absorbance was measured at 490 nm. IC50 was determined from the dose-response data using GraphPad Prism using the non-linear curve fit algorithm: sigmoidal dose-response curve with variable slope.
substance,measurement,value
"Rituximab: anti-CD20 agent, antibody, CAS 174722-31-7",cytotoxic effect by itself,no significant cytotoxic effect
